Measured values as given in US20070149456A1, “Epithelial sodium channel inhibiting agents and uses therefor” (University of Pittsburgh, priority 2005, published 2007).

Target: T1, mouse ENaC (Mus musculus, UniProt Q61180+Q9WU38+Q9WU39, DEL206-231)
T1 construct: expressed in transfected cells; host or cells: Xenopus laevis oocytes (cRNA injection)
T1 sequence (Q61180 with tags, fused parts or gaps DEL206-231): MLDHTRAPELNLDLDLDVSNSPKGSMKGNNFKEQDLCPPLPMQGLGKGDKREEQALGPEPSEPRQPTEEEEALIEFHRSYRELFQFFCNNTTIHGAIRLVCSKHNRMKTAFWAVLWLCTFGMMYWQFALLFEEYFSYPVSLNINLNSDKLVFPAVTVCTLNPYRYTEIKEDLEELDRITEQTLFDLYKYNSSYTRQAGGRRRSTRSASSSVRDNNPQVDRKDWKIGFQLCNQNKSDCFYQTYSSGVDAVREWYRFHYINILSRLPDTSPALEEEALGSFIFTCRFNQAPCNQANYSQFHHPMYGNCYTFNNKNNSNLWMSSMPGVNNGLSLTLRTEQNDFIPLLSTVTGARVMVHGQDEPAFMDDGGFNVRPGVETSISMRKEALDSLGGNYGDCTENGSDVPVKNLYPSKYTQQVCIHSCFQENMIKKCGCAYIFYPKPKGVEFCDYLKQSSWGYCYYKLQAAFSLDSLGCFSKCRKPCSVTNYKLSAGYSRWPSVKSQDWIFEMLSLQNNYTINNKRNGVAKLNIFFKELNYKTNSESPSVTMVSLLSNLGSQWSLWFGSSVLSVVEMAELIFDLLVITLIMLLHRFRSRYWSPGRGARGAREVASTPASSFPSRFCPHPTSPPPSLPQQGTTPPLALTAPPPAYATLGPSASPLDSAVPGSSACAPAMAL
T1 sequence (Q9WU38 1-638): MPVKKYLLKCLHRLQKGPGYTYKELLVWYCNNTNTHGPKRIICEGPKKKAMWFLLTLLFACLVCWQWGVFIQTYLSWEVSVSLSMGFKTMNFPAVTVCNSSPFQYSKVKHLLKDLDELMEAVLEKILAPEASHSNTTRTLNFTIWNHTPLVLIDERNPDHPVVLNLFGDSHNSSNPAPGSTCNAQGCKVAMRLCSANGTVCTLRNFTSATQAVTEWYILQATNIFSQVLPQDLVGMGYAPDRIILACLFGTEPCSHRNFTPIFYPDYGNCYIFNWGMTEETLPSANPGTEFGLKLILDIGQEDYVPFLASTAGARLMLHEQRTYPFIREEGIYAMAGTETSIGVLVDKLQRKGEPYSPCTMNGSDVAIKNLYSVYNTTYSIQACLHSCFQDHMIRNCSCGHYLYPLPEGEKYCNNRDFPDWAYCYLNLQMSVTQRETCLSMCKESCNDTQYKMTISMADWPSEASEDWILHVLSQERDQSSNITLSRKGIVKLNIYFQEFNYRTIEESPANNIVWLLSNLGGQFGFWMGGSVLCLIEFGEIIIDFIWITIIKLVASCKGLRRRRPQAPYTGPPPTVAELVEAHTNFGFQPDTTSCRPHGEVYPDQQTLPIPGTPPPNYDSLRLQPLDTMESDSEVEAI
T1 sequence (Q9WU39 1-655): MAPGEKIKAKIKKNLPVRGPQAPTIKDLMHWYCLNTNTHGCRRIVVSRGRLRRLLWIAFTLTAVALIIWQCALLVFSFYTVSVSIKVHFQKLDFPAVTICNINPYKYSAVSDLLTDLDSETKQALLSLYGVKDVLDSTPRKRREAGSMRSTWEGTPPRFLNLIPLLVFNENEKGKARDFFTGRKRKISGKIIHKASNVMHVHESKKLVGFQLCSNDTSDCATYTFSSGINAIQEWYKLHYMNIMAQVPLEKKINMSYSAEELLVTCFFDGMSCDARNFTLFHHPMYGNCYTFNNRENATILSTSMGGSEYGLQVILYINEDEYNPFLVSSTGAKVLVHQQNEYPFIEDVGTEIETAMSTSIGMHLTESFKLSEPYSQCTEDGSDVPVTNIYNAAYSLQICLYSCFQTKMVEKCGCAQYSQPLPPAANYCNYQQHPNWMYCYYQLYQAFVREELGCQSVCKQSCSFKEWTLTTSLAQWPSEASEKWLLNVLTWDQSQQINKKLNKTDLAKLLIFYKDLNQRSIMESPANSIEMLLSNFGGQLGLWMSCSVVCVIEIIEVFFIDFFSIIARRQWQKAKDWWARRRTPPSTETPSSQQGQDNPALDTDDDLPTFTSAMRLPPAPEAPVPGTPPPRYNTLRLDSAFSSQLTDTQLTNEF
Assay: Two-electrode voltage clamp, amiloride-sensitive whole cell Na+ current in Xenopus oocytes expressing wild-type αβγ ENaC
Format: cell-based
Conditions: peptide 10 μM (FIG. 3B)
Description: Oocyte Expression—cRNAs for α, β, γ mouse ENaC (wild-type and mutant) subunits and mouse prostasin were synthesized with T3 or T7 m-Message mMachineTM (Ambion, Austin, Tex.). Subunits carrying furin cleavage consensus site mutations and the corresponding wild-type subunits have amino-terminal HA and carboxyl-terminal V5 tags (Hughey, R. P., Bruns, J. B., Kinlough, C. L., Harkleroad, K. L., Tong, Q., Carattino, M. D., Johnson, J. P., Stockand, J. D., and Kleyman, T. R. (2004) J. Biol. Chem. 279, 18111-18114 18). Stage V-VI Xenopus laevis oocytes were pretreated with 1.5 mg/ml of type IV collagenase and injected with 0.5-2 ng of cRNA/subunit. Injected oocytes were maintained as previously reported (Carattino, M. D., Hill, W. G., and Kleyman, T. R. (2003), Arachidonic Acid Regulates Surface Expression of Epithelial Sodium Channels, J Biol. Chem. 278, 36202-36213 29).
Two-electrode Voltage Clamp—Two-electrode voltage clamp (TEV) was performed as previously described (Carattino, M. D., Hill, W. G., and Kleyman, T. R. (2003) J Biol. Chem. 278, 36202-36213 29). The extracellular solution (TEV solution) was (in mM): 110 NaCl, 2 KCl, 1.54 CaCl2, 10 HEPES, pH 7.4, or otherwise as indicated. […] Experiments with oocytes co-expressing ENaC and prostasin and the corresponding controls were performed in the presence of aprotinin (1 μM) to impede any potential degradation of α-26 by prostasin.
Data and Statistical Analyses—and mean time of inhibition are expressed as the mean with a 95% confidence interval (CI); otherwise, data were expressed as the mean ±S.E. (n), where “n” equals the number of independent experiments analyzed. IC50 was estimated from normalized currents plotted as a function of the peptide concentration fitted, as shown in Equation 1 y=t/(1+10^(logX−log/C50)) (Eq. 1) where y is the response variable, X is the concentration of peptide, and IC50 is the concentration of peptide that provokes a response half way between the baseline (t) and maximum response. […] Results

Sequence	block of ENaC currents by related peptides
DLEGALPHPLQELETPPPPNPAESAE (Ac-DLEGALPHPLQELETPPPPNPAESAE-NH2) [R/E]	significant reduction in the block
DLRGALAHALQRLRTAAAANAARSAR (Ac-DLRGALAHALQRLRTAAAANAARSAR-NH2) [P/A]	significant reduction in the block
